Assay results as given in patent US20200101109A1 (LENTIGEN TECHNOLOGY, published 2020).

B1: m1033-12 (ScFv12) human anti-CD33 ScFv binder, soluble (scFv)
scFv: QVQLQQSGPGLVKPSQTLSLTCAISGDSVSSNSAAWNWIRQSPSRGLEWLGGTYYRSKWYNDYAVSVKSRIIINADTSKNQFSLQLNSVTPEDTAVYYCARGYYYDSTDWFDPWGQGTLVTVSSGGGGSGGGGSGGGGSSSELTQDPTVSVALGQTVRITCQGDSLRSYYASWYQQKPGQAPVLVIYGKNNRPSGIPDRFSGSSSGNTASLTITGAQAEDEADYYCSSRDGSGHPYLFGPGTKVTVL
notes: also called CD33 ScFv 12; not shown: His and Flag tags
B2: m1033-15 (ScFv15) human anti-CD33 ScFv binder, soluble (scFv)
scFv: EVQLVQSGAEVKKPGESLKISCKGSGYSFTSYWIGWVRQMPGKGLEWMGIIYPGDSDTRYSPSFQGQVTISADKSISTAYLQWSSLKASDTAMYYCARLTTAGGMDVWGQGTTVTVSSGGGGSGGGGSGGGGSEIVLTQSPLSLPVTLGQPASISCRSSQSLVHSDGNTYLSWLHQRPGQPPRLLMYKISNRFSGVTDRFSGSGSGTDFTLKISRVEAEDVGVYYCMQGIHLPLTFGGGTKLEIK
notes: also called CD33 ScFv 15; not shown: His and Flag tags
B3: m1033-10 (ScFv10) human anti-CD33 ScFv binder, soluble (scFv)
scFv: QVQLQQSGPGLVKPSQTLSLTCAISGDSVSSNTAAWNWIRQSPSRGLEWLGRTYYRSKWYNDYAVPVKSRITINPDTSKNQFSLQLNSVTPEDTAVYYCARETYYYGSGSYWDAFDIWGQGTTVTVSSGGGGSGSGGSGGGGSQSVVTQPPSVSAAPGQKVTISCSGSSSNIGNNYVSWYQQLPGTAPKLFIYKNNQRPSEVPDRFSGSKSGTSASLAISGLQSDDEADYYCAAWDDRLNGYVFGTGTKVTVL
notes: also called CD33 ScFv 10; not shown: His and Flag tags
B4: m1033-9 (ScFv9) human anti-CD33 ScFv binder, soluble (scFv)
scFv: QVQLVQSGAEVKKPGESLRISCKGSGFSFPTYWIGWVRQMPGKGLEWMGIIYPGDSDTRYSPSFQGQVTISADKSISTAYLQWSSLKASDTAMYYCARLVGDGYNTGAFDIWGQGTMVTVSSGGGGSGGGGSGGGGSDIVMTHTPLSLSVTPGQPASISCKSSQSLLHSNGKTYLYWYLQKPGQPPQLLIYGASNRFSGVPDRFSGSGSGTDFTLKISRVEAEDVGVYYCMQSIQLPITFGQGTRLEIK
notes: also called CD33 ScFv 9; not shown: His and Flag tags
B5: m1033-2 (VH-2) human anti-CD33 VH domain binder, soluble (VHH)
VHH: EVQLVESGGGLVQPGGSLRLSCAASGFTFSSYGMSWVRQAPRKGLEWIGEINHSGSTNYNPSLKSRVTISRDNSKNTLYLQMNSLRAEDTATYYCARPLNYYYYYMDVWGKGTTVTVSS
notes: Human heavy chain variable domain only (not camelid), from a phage library, expressed in E. coli HB2151 and purified on Ni-NTA; also called CD33 VH-2; not shown: His and Flag tags
B6: m1033-4 (VH-4) human anti-CD33 VH domain binder, soluble (VHH)
VHH: EVQLVESGGGLVQPGGSLRLSCAASGFTFSSYGMSWVRQAPRQGLEWVANIKQDGSEKYYADSVKGRFTISRDNSKNTLYLQMNSLRAEDTATYYCAKENVDWGQGTLVTVSS
notes: Human heavy chain variable domain only (not camelid), from a phage library, expressed in E. coli HB2151 and purified on Ni-NTA; also called CD33_4; CD33 VH-4; not shown: His and Flag tags

The binders below were run against T1, recombinant human CD33 (human, UniProt P20138 18-259, limits assumed) (assay: ELISA, coated recombinant human CD33, purified His/Flag-tagged ScFv, anti-Flag-HRP).
T1 construct: also called coated CD33
T1 sequence (P20138 18-259 limits assumed): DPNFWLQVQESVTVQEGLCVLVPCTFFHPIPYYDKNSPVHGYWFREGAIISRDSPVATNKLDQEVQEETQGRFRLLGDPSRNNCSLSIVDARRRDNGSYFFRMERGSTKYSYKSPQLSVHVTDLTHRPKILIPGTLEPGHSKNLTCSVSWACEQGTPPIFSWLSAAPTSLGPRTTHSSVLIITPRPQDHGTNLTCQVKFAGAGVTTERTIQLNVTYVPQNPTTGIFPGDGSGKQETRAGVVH
Procedure: (§1) 50 μl of the diluted recombinant human CD33 in PBS at 2 ug/ml was coated in a 96-well plate at 4° C. overnight. Purified ScFv or VHs (from above) with His and Flag tags were serially diluted and added into the target protein coated wells. After washing, a 1:3000 diluted HRP conjugated anti-Flag antibody was added for 1 hr at RT. After washing, 3, 3, 5, 5′-Tetramethylbenzidine (TMB) substrate was added, 1N H₂SO₄ was added to stop the reaction after incubation at room temperature for 10 minutes, and the O.D. was read at 450 nm to quantify the relative ability of ScFv to bind CD33.
B1: binds.
B2: binds.
B3: binds.
B4: binds.

Each binder was assayed against T1, recombinant human CD33 (assay: ELISA, coated recombinant human CD33, purified His/Flag-tagged VH, anti-Flag-HRP).
Procedure: as §1
B5: binds.
B6: binds.
